The results in this text go back to patent US5580958, “Polypeptides encoding transcriptional activators and uses thereof” (La Jolla Cancer Research Foundation).

In this data set the target is PU.1 beta-galactosidase fusion (lambda 25.1, Ly25.1) (Mus musculus, UniProt P17433 P17433:1-272). In words: Southwestern blot with multimerized 33-mer; methylation interference protects three G in GAGGAA; lower affinity than PU-1. As to conditions: tags: beta-galactosidase fusion, partially purified on anti-beta-gal Sepharose; label: 32P. As to the method: Production of beta-Galactosidase Fusion Protein and Western and Southwestern Analyses Lysogens were prepared from the lambda 25.1 and lambda 24.1 clones as described (Sturm et al., 1988) and the fusion proteins partially purified using anti-beta-galactosidase antibody bound to Sepharose (5 Prime - 3 Prime, Inc., Paoli, Pa.), as described by the manufacturer. Western and Southwestern analyses were carried out as described (Staudt et al., 1988).
Bacterial extracts prepared from lambda-gt11 and lambda 25.1 lysogens were fractionated on a 7.5% SDS-polyacrylamide gel, transferred to nitrocellulose and probed with labeled multimerized 33-mer. Only the lane with the lambda 25.1 extract contained a protein able to bind the probe. […] The positive filter was subsequently treated with rabbit antiserum to beta-galactosidase and mouse anti-rabbit immunoglobulin horseradish peroxidase conjugate. […] The appearance of several bands of lower molecular size are probably the result of degradation of the 150 kDa species. […] Some breakdown of the beta-galactosidase occurred in this sample resulting in a band at about 69 kDa.

B1: MHC class II I-A beta 33-mer (tetramer probe) (dsDNA)
DNA 1: GATCCGTCCCAAGTGAGGAACCAATCAGCATTG
DNA 2: CAATGCTGATTGGTTCCTCACTTGGGACGGATC
In the case of B1, the binding result is given as “binds”.
